The values that follow come from the supplement of paper PMC5998384.

The test system of data set [1] is HeLa Kyoto. As to the kind of experiment: melting temperature (median over replicates), in situ; higher = more thermally stable.
Data set [2] deals with HeLa Kyoto. As to the kind of experiment: thermal stability score vs G1/S (z-score of summed log2 fold changes over temperatures); higher = more thermally stable than in G1/S.
Where [3] appears, read: cell cycle stage: early G1 (4.5 h after nocodazole release).
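For melting temperature (median over replicates), in situ in this document: HeLa Kyoto cells synchronized by double thymidine or nocodazole block, proteins quantified by TMT10plex mass spectrometry, three independent biological replicates.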
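For thermal stability score vs G1/S (z-score of summed log2 fold changes over temperatures) in this document: synchronized HeLa Kyoto cells, proteins quantified by TMT10plex mass spectrometry, three biological replicates, mitosis taken 0.5 h after nocodazole release, G1/S directly after double thymidine block.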

Sequence of ARF1 (chain, as listed by the source): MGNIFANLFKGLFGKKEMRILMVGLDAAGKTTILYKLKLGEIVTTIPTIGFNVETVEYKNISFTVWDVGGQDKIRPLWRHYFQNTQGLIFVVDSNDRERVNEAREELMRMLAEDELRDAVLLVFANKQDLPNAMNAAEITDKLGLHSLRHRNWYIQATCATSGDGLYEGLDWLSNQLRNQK

As to KIF1B, the results for the melting temperature with HeLa Kyoto [1] (cell cycle stage: G1/S) and with HeLa Kyoto [1] (cell cycle stage: mitosis) were 50.5 °C and 52.2 °C, respectively.

Turning to “MRRAGLGEGVPPGNYGNYGYANSGYSACEEENERLTESLRSKVTAIKSLSIEIGHEVKTQNKLLAEMDSQFDSTTGFLGKTMGKLKILSRGSQTKLLCYMMLFSLFVFFIIYWIIKLR [BET1]”, the figures for the melting temperature with HeLa Kyoto [1] (cell cycle stage: G1/S) and in the data set with HeLa Kyoto [1] (cell cycle stage: mitosis) were 54.7 °C and 54.9 °C, respectively.

On to “MASKTKASEALKVVARCRPLSRKEEAAGHEQILTMDVKLGQVTLRNPRAAPGELPKTFTFDAVYDASSKQADLYDETVRPLIDSVLQGFNGTVFAYGQTGTGKTYTMQGTWVEPELRGVIPNAFEHIFTHISRSQNQQYLVRASYLEIYQEEIRDLLSKEPGKRLELKENPETGVYIKDLSSFVTKNVKEIEHVMNLGNQTRAVGSTHMNEVSSRSHAIFIITVECSERGSDGQDHIRVGKLNLVDLAGSERQNKAGPNTAGGAATPSSGGGGGGGGSGGGAGGERPKEASKINLSLSALGNVIAALAGNRSTHIPYRDSKLTRLLQDSLGGNAKTIMVATLGPASHSYDESLSTLRFANRAKNIKNKPRVNEDPKDTLLREFQEEIARLKAQLEKRGMLGKRPRRKSSRRKKAVSAPPGYPEGPVIEAWVAEEEDDNNNNHRPPQPILESALEKNMENYLQEQKERLEEEKAAIQDDRSLVSEEKQKLLEEKEKMLEDLRREQQATELLAAKYKAMESKLLIGGRNIMDHTNEQQKMLELKRQEIAEQKRREREMQQEMMLRDEETMELRGTYTSLQQEVEVKTKKLKKLYAKLQAVKAEIQDQHDEYIRVRQDLEEAQNEQTRELKLKYLIIENFIPPEEKNKIMNRLFLDCEEEQWKFQPLVPAGVSSSQMKKRPTSAVGYKRPISQYARVAMAMGSHPRYRAENIMFLELDVSPPAVFEMEFSHDQEQDPRALHMERLMRLDSFLERPSTSKVRKSRSWCQSPQRPPPSTTHASLASASLRPATVADHE [KIF3C]”, for which, in the data set on HeLa Kyoto [1] (cell cycle stage: mitosis), the melting temperature worked out at 50.4 °C.

“MGFIFSKSMNESMKNQKEFMLMNARLQLERQLIMQSEMRERQMAMQIAWSREFLKYFGTFFGLAAISLTAGAIKKKKPAFLVPIVPLSFILTYQYDLGYGTLLERMKGEAEDILETEKSKLQLPRGMITFESIEKARKEQSRFFIDK [PLGRKT]”: the values for the melting temperature in the data set with HeLa Kyoto [1] (cell cycle stage: G1/S) and in the data set with HeLa Kyoto [1] (cell cycle stage: mitosis) were 56.5 °C and 55.5 °C, respectively.

Regarding “MAAGQNGHEEWVGSAYLFVESSLDKVVLSDAYAHPQQKVAVYRALQAALAESGGSPDVLQMLKIHRSDPQLIVQLRFCGRQPCGRFLRAYREGALRAALQRSLAAALAQHSVPLQLELRAGAERLDALLADEERCLSCILAQQPDRLRDEELAELEDALRNLKCGSGARGGDGEVASAPLQPPVPSLSEVKPPPPPPPAQTFLFQGQPVVNRPLSLKDQQTFARSVGLKWRKVGRSLQRGCRALRDPALDSLAYEYEREGLYEQAFQLLRRFVQAEGRRATLQRLVEALEENELTSLAEDLLGLTDPNGGLA [TRADD]”, in the data set on HeLa Kyoto [1] (cell cycle stage: G1/S), the melting temperature was found to be 49.9 °C.

Substance “MSTRKRRGGAINSRQAQKRTREATSTPEISLEAEPIELVETAGDEIVDLTCESLEPVVVDLTHNDSVVIVDERRRPRRNARRLPQDHADSCVVSSDDEELSRDRDVYVTTHTPRNARDEGATGLRPSGTVSCPICMDGYSEIVQNGRLIVSTECGHVFCSQCLRDSLKNANTCPTCRKKINHKRYHPIYI [RNF4]” registered a melting temperature in the data set on HeLa Kyoto [1] (cell cycle stage: G1/S) of 53.2 °C.

The substance “MLGSRAAGFARGLRAVALAWLPGWRGRSFALARAAGAPHGGDLQPPACPEPRGRQLSLSAAAVVDSAPRPLQPYLRLMRLDKPIGTWLLYLPCTWSIGLAAEPGCFPDWYMLSLFGTGAILMRGAGCTINDMWDQDYDKKVTRTANRPIAAGDISTFQSFVFLGGQLTLALGVLLCLNYYSIALGAGSLLLVITYPLMKRISYWPQLALGLTFNWGALLGWSAIKGSCDPSVCLPLYFSGVMWTLIYDTIYAHQDKRDDVLIGLKSTALRFGENTKPWLSGFSVAMLGALSLVGVNSGQTAPYYAALGAVGAHLTHQIYTLDIHRPEDCWNKFISNRTLGLIVFLGIVLGNLWKEKKTDKTKKGIENKIEN [COQ2]” yielded a melting temperature in the data set with HeLa Kyoto [1] (cell cycle stage: G1/S) of 55.1 °C.

“MESMAVATDGGERPGVPAGSGLSASQRRAELRRRKLLMNSEQRINRIMGFHRPGSGAEEESQTKSKQQDSDKLNSLSVPSVSKRVVLGDSVSTGTTDQQGGVAEVKGTQLGDKLDSFIKPPECSSDVNLELRQRNRGDLTADSVQRGSRHGLEQYLSRFEEAMKLRKQLISEKPSQEDGNTTEEFDSFRIFRLVGCALLALGVRAFVCKYLSIFAPFLTLQLAYMGLYKYFPKSEKKIKTTVLTAALLLSGIPAEVINRSMDTYSKMGEVFTDLCVYFFTFIFCHELLDYWGSEVP [CAMLG]” displayed a melting temperature with HeLa Kyoto [1] (cell cycle stage: G1/S) of 57.8 °C.

For ARF1, the values for the melting temperature in the data set with HeLa Kyoto [1] (cell cycle stage: G1/S) and with HeLa Kyoto [1] (cell cycle stage: mitosis) were 59.6 °C and 57.8 °C, respectively.

As to “MAAGLRKRGRSGSAAQAEGLCKQWLQRAWQERRLLLREPRYTLLVAACLCLAEVGITFWVIHRVAYTEIDWKAYMAEVEGVINGTYDYTQLQGDTGPLVYPAGFVYIFMGLYYATSRGTDIRMAQNIFAVLYLATLLLVFLIYHQTCKVPPFVFFFMCCASYRVHSIFVLRLFNDPVAMVLLFLSINLLLAQRWGWGCCFFSLAVSVKMNVLLFAPGLLFLLLTQFGFRGALPKLGICAGLQVVLGLPFLLENPSGYLSRSFDLGRQFLFHWTVNWRFLPEALFLHRAFHLALLTAHLTLLLLFALCRWHRTGESILSLLRDPSKRKVPPQPLTPNQIVSTLFTSNFIGICFSRSLHYQFYVWYFHTLPYLLWAMPARWLTHLLRLLVLGLIELSWNTYPSTSCSSAALHICHAVILLQLWLGPQPFPKSTQHSKKAH [ALG3]”, the thermal stability score in the data set with HeLa Kyoto [2] (setting [3]) was found to be 1.41; in the data set on HeLa Kyoto [2] (cell cycle stage: mitosis) it was 2.38.

Turning to “MAEQVLPQALYLSNMRKAVKIRERTPEDIFKPTNGIIHHFKTMHRYTLEMFRTCQFCPQFREIIHKALIDRNIQATLESQKKLNWCREVRKLVALKTNGDGNCLMHATSQYMWGVQDTDLVLRKALFSTLKETDTRNFKFRWQLESLKSQEFVETGLCYDTRNWNDEWDNLIKMASTDTPMARSGLQYNSLEEIHIFVLCNILRRPIIVISDKMLRSLESGSNFAPLKVGGIYLPLHWPAQECYRYPIVLGYDSHHFVPLVTLKDSGPEIRAVPLVNRDRGRFEDLKVHFLTDPENEMKEKLLKEYLMVIEIPVQGWDHGTTHLINAAKLDEANLPKEINLVDDYFELVQHEYKKWQENSEQGRREGHAQNPMEPSVPQLSLMDVKCETPNCPFFMSVNTQPLCHECSERRQKNQNKLPKLNSKPGPEGLPGMALGASRGEAYEPLAWNPEESTGGPHSAPPTAPSPFLFSETTAMKCRSPGCPFTLNVQHNGFCERCHNARQLHASHAPDHTRHLDPGKCQACLQDVTRTFNGICSTCFKRTTAEASSSLSTSLPPSCHQRSKSDPSRLVRSPSPHSCHRAGNDAPAGCLSQAARTPGDRTGTSKCRKAGCVYFGTPENKGFCTLCFIEYRENKHFAAASGKVSPTASRFQNTIPCLGRECGTLGSTMFEGYCQKCFIEAQNQRFHEAKRTEEQLRSSQRRDVPRTTQSTSRPKCARASCKNILACRSEELCMECQHPNQRMGPGAHRGEPAPEDPPKQRCRAPACDHFGNAKCNGYCNECFQFKQMYG [TNFAIP3]”, the thermal stability score in the data set with HeLa Kyoto [2] (setting [3]) is 0.262; in the data set with HeLa Kyoto [2] (cell cycle stage: mitosis), -0.606.

“MAGLKRRVPLHSLRYFISMVGLFSKPGLLPWYARNPPGWSQLFLGTVCKGDFTRVIATKCQKGQKSQKKPSHLGPLDGSWQERLADVVTPLWRLSYEEQLKVKFAAQKKILQRLESYIQMLNGVSVTTAVPKSERLSCLLHPIIPSPVINGYRNKSTFSVNRGPDGNPKTVGFYLGTWRDGNVVCVQSNHLKNIPEKHSQVAQYYEVFLRQSPLEPCLVFHEGGYWRELTVRTNSQGHTMAIITFHPQKLSQEELHVQKEIVKEFFIRGPGAACGLTSLYFQESTMTRCSHQQSPYQLLFGEPYIFEELLSLKIRISPDAFFQINTAGAEMLYRTVGELTGVNSDTILLDICCGTGVIGLSLAQHTSRVLGIELLEQAVEDARWTAAFNGITNSEFHTGQAEKILPGLLKSKEDGQSIVAVVNPARAGLHYKVIQAIRNFRAIHTLVFVSCKLHGESTRNVIELCCPPDPAKKLLGEPFVLQQAVPVDLFPHTPHCELVLLFTR [TRMT2B]”: the results for the thermal stability score in the data set on HeLa Kyoto [2] (setting [3]) and in the data set on HeLa Kyoto [2] (cell cycle stage: mitosis) were 0.356 and 1.27, respectively.

Consider “MLCLCLYVPVIGEAQTEFQYFESKGLPAELKSIFKLSVFIPSQEFSTYRQWKQKIVQAGDKDLDGQLDFEEFVHYLQDHEKKLRLVFKSLDKKNDGRIDAQEIMQSLRDLGVKISEQQAEKILKSMDKNGTMTIDWNEWRDYHLLHPVENIPEIILYWKHSTIFDVGENLTVPDEFTVEERQTGMWWRHLVAGGGAGAVSRTCTAPLDRLKVLMQVHASRSNNMGIVGGFTQMIREGGARSLWRGNGINVLKIAPESAIKFMAYEQIKRLVGSDQETLRIHERLVAGSLAGAIAQSSIYPMEVLKTRMALRKTGQYSGMLDCARRILAREGVAAFYKGYVPNMLGIIPYAGIDLAVYETLKNAWLQHYAVNSADPGVFVLLACGTMSSTCGQLASYPLALVRTRMQAQASIEGAPEVTMSSLFKHILRTEGAFGLYRGLAPNFMKVIPAVSISYVVYENLKITLGVQSR [SLC25A25]”, for which the thermal stability score in the data set with HeLa Kyoto [2] (setting [3]) is -0.983; in the data set on HeLa Kyoto [2] (cell cycle stage: mitosis) it was -0.000686.

On to “MWSGPPQPDQGLPPPLAAVPVPWKSTDPCQGHRESPGALVETSAGEEAQGQEGPAAAQLDVLRLRSSSMEIREKGSEFLKEELHRAQKELKLKDEECERLSKVREQLEQELEELTASLFEEAHKMVREANMKQAASEKQLKEARGKIDMLQAEVTALKTLVITSTPASPNRELHPQLLSPTKAGPRKGHSRHKSTSSTLCPAVCPAAGHTLTPDREGKEVDTILFAEFQAWRESPTLDKTCPFLERVYREDVGPCLDFTMQELSVLVRAAVEDNTLTIEPVASQTLPTVKVAEVDCSSTNTCALSGLTRTCRHRIRLGDSKSHYYISPSSRARITAVCNFFTYIRYIQQGLVRQDAEPMFWEIMRLRKEMSLAKLGFFPQEA [RAB3IL1]”, for which the figures for the thermal stability score with HeLa Kyoto [2] (setting [3]) and in the data set with HeLa Kyoto [2] (cell cycle stage: mitosis) were -0.0366 and 0.539, respectively.

In the case of “MAALEKMTFPKKMTFPEKPSHKKYRAALKKEKRKKRRQELARLRDSGLSQEEEEDTFIEEQQLEEEKLLERERERLHEEWLLREQKAQEEFRIKKEKEEAAKKWLEEQERKLKEQWKEQQRKEREEEEQKQQEKKEKEEAVQKMLDQAENDLENSTTWQNPEPPVDFRVMEKDRANCPFYSKTGACRFGDRCSRKHNFPTSSPTLLIKSMFTTFGMEQCRRDDYDPDASLEYSEEETYQQFLDFYEDVLPEFKNVGKVIQFKVSCNLEPHLRGNVYVQYQSEEECQAALSLFNGRWYAGRQLQCEFCPVTRWKMAICGLFEIQQCPRGKHCNFLHVFRNPNNEFWEANRDIYLSSDQTGSSFGKNSERREKMGHHDHYYSRQRGRRNPSPDHTYKRNGESERKKSSHRGKKSHKRTSKSRERHNSPSRGRNRHRSWDQGRRSQSRRSHRSRSQSSSRCRSRGRRKSGNRDRTVQSPQSK [ZRSR1]”, the thermal stability score in the data set with HeLa Kyoto [2] (setting [3]) stood at 1.06e-17; with HeLa Kyoto [2] (cell cycle stage: mitosis), 1.37e-17.

“MIEVVAELSRGPVFLAGEALECVVTVTNPLPPTATSASSEALAWASAQIHCQFHASESRVALPPPDSSQPDVQPDSQTVFLPHRGERGQCILSTPPKILFCDLRLDPGESKSYSYSEVLPIEGPPSFRGQSVKYVYKLTIGCQRVNSPITLLRVPLRVLVLTGLQDVRFPQDEAVAPSSPFLEEDEGGKKDSWLAELAGERLMAATSCRSLHLYNISDGRGKVGTFGIFKSVYRLGEDVVGTLNLGEGTVACLQFSVSLQTEERVQPEYQRRRGAGGVPSVSHVTHARHQESCLHTTRTSFSLPIPLSSTPGFCTAIVSLKWRLHFEFVTSREPGLVLLPPVEQPEPTTWTGPEQVPVDTFSWDLPIKVLPTSPTLASYAAPGPSTSTITI [RGP1]”: the values for the thermal stability score in the data set on HeLa Kyoto [2] (setting [3]) and in the data set on HeLa Kyoto [2] (cell cycle stage: mitosis) were 0.0205 and -1.18, respectively.
